Experimental findings from PMC10530651, “Mechanisms of Regulation of the CHRDL1 Gene by the TWIST2 and ADD1/SREBP1c Transcription Factors” are described below.

Data set [1] concerns the target T1, TWIST2 Q119X (Homo sapiens, UniProt Q8WVJ9 1-118).
T1 sequence: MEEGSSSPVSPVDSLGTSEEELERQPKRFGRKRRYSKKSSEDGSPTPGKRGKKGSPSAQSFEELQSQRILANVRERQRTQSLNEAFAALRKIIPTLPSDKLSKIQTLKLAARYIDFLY
The data set can be described thus: EMSA; homodimer; EMSA: 20 mM HEPES pH 7.9, 60 mM KCl, 1 mM MgCl2, 0.5 mM DTT, 10% glycerol, 10 µL with 1-3 µL TnT lysate; competitor at least 50x molar excess; 6% native gel, 0.5X TBE, 4 °C; binding temperature not stated. The conditions noted are these: protein: ivt; tags: Myc; chain copies: 2; label: 32P as probe; blunt. Background: In EMSA bound probe runs differently from free probe, usually more slowly.

Data set [2] deals with T1, TWIST2 Q119X. Kind of data set: EMSA; EMSA: 20 mM HEPES pH 7.9, 60 mM KCl, 1 mM MgCl2, 0.5 mM DTT, 10% glycerol, 10 µL with 1-3 µL TnT lysate; competitor at least 50x molar excess; 6% native gel, 0.5X TBE, 4 °C; binding temperature not stated. The following applies: protein: ivt; tags: Myc; chain copies: 2; label: 32P as probe; blunt.

B1: CH2700EA (dsDNA)
DNA 1: TGGTGGTGGTCACATGAATATACACATGCGATAAAATT
DNA 2: AATTTTATCGCATGTGTATATTCATGTGACCACCACCA
Consider B1, for which the binding result in data set [1] is given as “no binding”.

B2: CH2600TWI (dsDNA)
DNA 1: TATATACACAGGCAAATGAGTGCATATAAA
DNA 2: TTTATATGCACTCATTTGCCTGTGTATATA
On to B2, for which the binding result in data set [2] was “no binding”.
